According to patent publication US20100047170:

Tests used:
[1] = biological target: DQ collagen, type I from bovine skin, fluorescein conjugate (Invitrogen) (UniProt P02453)
[2] = biological target: DQ Bovine Serum Albumin, fluorescent quenched (UniProt P02769)
[3] = tested on: DQ collagen, type IV from human placenta, fluorescein conjugate (Invitrogen)
[4] = tested on: DQ Gelatin from pig skin, fluorescein conjugate (Invitrogen)

Measured: hydrolysis of FITC-quenched protein (fluorescence increase)

Sequence of DQ Bovine Serum Albumin, fluorescent quenched (P02769 25-607): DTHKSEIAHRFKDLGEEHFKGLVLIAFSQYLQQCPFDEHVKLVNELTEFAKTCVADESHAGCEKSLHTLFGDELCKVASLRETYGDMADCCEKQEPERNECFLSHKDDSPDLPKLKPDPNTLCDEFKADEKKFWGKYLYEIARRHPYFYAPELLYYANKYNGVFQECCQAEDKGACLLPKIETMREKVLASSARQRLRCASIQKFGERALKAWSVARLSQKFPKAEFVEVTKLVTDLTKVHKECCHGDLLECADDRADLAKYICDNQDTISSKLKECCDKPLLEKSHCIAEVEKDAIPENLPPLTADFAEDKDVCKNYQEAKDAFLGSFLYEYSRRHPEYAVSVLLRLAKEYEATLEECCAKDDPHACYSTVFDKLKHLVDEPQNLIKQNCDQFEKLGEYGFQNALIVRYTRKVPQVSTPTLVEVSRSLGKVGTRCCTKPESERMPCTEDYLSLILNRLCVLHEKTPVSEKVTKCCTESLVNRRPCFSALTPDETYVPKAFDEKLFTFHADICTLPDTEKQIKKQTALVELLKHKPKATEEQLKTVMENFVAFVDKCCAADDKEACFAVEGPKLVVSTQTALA
Sequence of DQ collagen, type I from bovine skin, fluorescein conjugate (Invitrogen) (P02453 162-1217, chain 1 of 2): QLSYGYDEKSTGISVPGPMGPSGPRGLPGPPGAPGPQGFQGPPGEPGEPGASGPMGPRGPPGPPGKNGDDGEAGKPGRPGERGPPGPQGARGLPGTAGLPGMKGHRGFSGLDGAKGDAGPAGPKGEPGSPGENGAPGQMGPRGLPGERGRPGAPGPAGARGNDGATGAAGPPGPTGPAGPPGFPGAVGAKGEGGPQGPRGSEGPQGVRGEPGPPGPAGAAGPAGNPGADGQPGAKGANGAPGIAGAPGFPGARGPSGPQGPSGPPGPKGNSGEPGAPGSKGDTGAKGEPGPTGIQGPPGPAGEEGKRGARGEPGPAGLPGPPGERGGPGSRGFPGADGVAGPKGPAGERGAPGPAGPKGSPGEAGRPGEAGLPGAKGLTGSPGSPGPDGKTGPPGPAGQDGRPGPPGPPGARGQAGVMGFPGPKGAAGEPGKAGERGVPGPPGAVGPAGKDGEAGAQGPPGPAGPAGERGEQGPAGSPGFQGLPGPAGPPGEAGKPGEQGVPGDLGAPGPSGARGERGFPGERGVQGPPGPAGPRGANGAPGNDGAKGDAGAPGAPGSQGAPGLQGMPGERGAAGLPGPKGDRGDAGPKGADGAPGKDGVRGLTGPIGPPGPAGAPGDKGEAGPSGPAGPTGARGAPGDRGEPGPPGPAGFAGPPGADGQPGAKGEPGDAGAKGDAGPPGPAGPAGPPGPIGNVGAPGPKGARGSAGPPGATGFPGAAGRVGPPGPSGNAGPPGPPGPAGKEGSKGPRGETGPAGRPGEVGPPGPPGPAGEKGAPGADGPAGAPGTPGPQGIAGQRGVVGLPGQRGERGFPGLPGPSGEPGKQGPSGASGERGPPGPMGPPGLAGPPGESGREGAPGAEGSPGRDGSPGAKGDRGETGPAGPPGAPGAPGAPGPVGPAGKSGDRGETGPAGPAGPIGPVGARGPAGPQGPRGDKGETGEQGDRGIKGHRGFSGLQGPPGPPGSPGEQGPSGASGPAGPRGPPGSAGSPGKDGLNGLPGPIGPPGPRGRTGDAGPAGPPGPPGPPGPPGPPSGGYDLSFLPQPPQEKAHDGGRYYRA
Sequence of DQ collagen, type I from bovine skin, fluorescein conjugate (Invitrogen) (P02453 other isoform, or with tags, fused parts or gaps, chain 2 of 2): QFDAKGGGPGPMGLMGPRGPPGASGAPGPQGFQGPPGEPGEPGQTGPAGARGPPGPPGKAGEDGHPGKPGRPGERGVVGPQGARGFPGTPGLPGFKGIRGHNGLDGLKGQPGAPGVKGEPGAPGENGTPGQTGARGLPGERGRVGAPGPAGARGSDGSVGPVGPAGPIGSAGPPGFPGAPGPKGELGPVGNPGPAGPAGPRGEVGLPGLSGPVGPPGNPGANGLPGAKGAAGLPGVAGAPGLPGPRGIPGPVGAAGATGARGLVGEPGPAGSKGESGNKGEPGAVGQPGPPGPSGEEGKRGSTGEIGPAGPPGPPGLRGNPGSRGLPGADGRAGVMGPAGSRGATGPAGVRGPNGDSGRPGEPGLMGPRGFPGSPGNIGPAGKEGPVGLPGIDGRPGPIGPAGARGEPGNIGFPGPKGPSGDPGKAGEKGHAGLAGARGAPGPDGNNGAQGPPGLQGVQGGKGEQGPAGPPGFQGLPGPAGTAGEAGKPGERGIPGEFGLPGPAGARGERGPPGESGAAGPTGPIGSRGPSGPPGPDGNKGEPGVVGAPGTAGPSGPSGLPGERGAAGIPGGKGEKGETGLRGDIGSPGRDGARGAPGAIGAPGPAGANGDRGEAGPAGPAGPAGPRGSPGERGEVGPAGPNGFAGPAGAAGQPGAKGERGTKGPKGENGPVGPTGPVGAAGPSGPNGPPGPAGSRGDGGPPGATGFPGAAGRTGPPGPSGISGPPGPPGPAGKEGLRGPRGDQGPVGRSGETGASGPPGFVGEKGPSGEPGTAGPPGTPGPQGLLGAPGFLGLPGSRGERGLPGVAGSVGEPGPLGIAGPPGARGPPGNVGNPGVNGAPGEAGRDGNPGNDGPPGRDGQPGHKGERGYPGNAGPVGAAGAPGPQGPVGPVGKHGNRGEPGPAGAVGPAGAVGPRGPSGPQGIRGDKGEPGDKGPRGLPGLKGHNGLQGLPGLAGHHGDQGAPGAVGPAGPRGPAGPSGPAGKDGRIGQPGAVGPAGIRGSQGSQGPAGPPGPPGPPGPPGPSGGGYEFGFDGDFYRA

His tagged extra cellular domain of Prostate Specific Membrane Antigen (PSMA), purified from S2 cells
no digestion of any of the proteins: all assays above
